Non-standard residues stand in square brackets, D forms with d. No end group written: not given here. code X = not defined here
Tests used:
Details in all cases: both partners purified
[1] = target: Recombinant human vascular endothelial growth factor (VEGF165) (human, UniProt P15692-4 1-191, X (detection label) on the N-terminus; disulfide bridge between the two cysteines cyclises …; C-terminal Tz4 (1,4-triazole formed of Az4 and D-propargylglycine) joins it to lfrew | all D-res); assay: not stated; titration giving EC50 ('relative affinities') of PCCs on VEGF, Figure 2A; experimental details in the Supporting Information
Chain of Recombinant human vascular endothelial growth factor (VEGF165) (human, UniProt P15692-4 1-191, X (detection label) on the N-terminus; disulfide bridge between the two cysteines cyclises …; C-terminal Tz4 (1,4-triazole formed of Az4 and D-propargylglycine) joins it to lfrew | all D-res) (P15692 other isoform, or with tags, fused parts or gaps): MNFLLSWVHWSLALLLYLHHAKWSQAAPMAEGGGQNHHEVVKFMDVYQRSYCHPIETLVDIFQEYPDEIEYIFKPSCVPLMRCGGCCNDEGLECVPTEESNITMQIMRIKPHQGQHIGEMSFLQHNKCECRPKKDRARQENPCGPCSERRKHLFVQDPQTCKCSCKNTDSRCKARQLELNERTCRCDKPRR

[2] = target: T1, Recombinant human vascular endothelial growth factor (VEGF165) (human, UniProt P15692-4 1-191, X (detection label) on the N-terminus); disulfide bridge between the two cysteines cyclises …; C-terminal Tz4 (1,4-triazole linker) joins it to lfrew | all D-residues (printed in lowercase: l); assay: inhibition assay; inhibition of VEGF binding to VEGFR2 in the presence of PCCs, Figure 2B; experimental details in the Supporting Information
T1 sequence (P15692 other isoform, or with tags, fused parts or gaps): as above

[3] = target: T1, Recombinant human vascular endothelial …; assay: not stated; titration giving EC50 ('relative affinities') of PCCs on VEGF, Figure 2A; experimental details in the Supporting Information

B1: Bi-LV (X-VEPNCDIHVMWEWECFERL-Tz4-lfrew) (designed binder)
peptide 1: {code X}-VEPNCDIHVMWEWECFERL
peptide 2: [dL][dF][dR][dE][dW]
modifications: not fully specified; printed as X-VEPNCDIHVMWEWECFERL-Tz4-lfrew; cysteine pairing not given here; reading uncertain; also: chain 1 C-terminus joined to chain 2 N-terminus via Tz4
notes: also called anti-VEGF biligand PCC
fold improvement in EC50 relative to AnchorV [1]: 4.5 fold

B2: Tetra-LV (X-VEPNCDIHVMWEWECFERL-Tz4-lfrew-Tz4-eeird-Tz4-qfkyr) (designed binder)
peptide 1: {code X}-VEPNCDIHVMWEWECFERL
peptide 2: [dL][dF][dR][dE][dW]
peptide 3: [dE][dE][dI][dR][dD]
peptide 4: [dQ][dF][dK][dY][dR]
modifications: cysteine pairing not given here; reading uncertain; also: chains joined via Tz4 linkers, N-terminal X not defined, triazole to a chain's N/C-terminus, triazole to a chain's N/C-terminus, triazole to a chain's N/C-terminus, printed as X-VEPNCDIHVMWEWECFERL-Tz4-lfrew-Tz4-eeird-Tz4-qfkyr
notes: also called tetraligand
IC50 [2]: 0.74 ± 0.05 nM
EC50 [3]: 6.1 ± 0.2 nM

B3: Tri-LV (X-VEPNCDIHVMWEWECFERL-Tz4-lfrew-Tz4-eeird) (designed binder)
peptide 1: {code X}-VEPNCDIHVMWEWECFERL
peptide 2: [dL][dF][dR][dE][dW]
peptide 3: [dE][dE][dI][dR][dD]
modifications: cysteine pairing not given here; reading uncertain; also: chains joined via Tz4 linkers, N-terminal X not defined, triazole to a chain's N/C-terminus, triazole to a chain's N/C-terminus, printed as X-VEPNCDIHVMWEWECFERL-Tz4-lfrew-Tz4-eeird
notes: also called consensus triligand; 64Cu-DOTA-Tri-LV (N-terminal DOTA conjugate, in vivo)
IC50 [2]: 2.6 ± 0.5 nM

Source: article PMC6585716 (Biopolymers, 2017)
